Measured values taken from paper PMC7616679 (Nature, 2024).

Tests used:
cryo-EM structure = molecular target: the molecule itself; test: cryo-EM structure
[1] = molecular target: T1, Recombinant Ce C19L1 full-length protein, untagged (C. elegans, UniProt O16216 1-533); test: pull-down
T1 sequence: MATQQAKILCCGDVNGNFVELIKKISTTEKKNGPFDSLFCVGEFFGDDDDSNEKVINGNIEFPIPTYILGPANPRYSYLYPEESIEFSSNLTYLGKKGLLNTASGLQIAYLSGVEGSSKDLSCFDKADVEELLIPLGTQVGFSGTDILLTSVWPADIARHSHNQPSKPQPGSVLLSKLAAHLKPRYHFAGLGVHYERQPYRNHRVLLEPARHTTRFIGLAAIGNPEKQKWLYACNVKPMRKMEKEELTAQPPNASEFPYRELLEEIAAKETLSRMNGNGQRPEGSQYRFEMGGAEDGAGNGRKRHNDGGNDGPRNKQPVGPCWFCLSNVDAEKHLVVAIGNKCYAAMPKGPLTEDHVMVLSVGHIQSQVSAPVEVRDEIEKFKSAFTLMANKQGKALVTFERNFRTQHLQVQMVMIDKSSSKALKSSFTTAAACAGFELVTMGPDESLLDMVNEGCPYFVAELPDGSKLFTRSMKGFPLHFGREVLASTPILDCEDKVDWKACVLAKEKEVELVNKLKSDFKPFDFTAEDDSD

[2] = molecular target: Recombinant Ce DHX15 (10x-His-FLAG-3C-ceDHX15) (C. elegans, UniProt Q20875 1-739); test: pull-down
Recombinant Ce DHX15 (10x-His-FLAG-3C-ceDHX15), sequence (Q20875 whole entry): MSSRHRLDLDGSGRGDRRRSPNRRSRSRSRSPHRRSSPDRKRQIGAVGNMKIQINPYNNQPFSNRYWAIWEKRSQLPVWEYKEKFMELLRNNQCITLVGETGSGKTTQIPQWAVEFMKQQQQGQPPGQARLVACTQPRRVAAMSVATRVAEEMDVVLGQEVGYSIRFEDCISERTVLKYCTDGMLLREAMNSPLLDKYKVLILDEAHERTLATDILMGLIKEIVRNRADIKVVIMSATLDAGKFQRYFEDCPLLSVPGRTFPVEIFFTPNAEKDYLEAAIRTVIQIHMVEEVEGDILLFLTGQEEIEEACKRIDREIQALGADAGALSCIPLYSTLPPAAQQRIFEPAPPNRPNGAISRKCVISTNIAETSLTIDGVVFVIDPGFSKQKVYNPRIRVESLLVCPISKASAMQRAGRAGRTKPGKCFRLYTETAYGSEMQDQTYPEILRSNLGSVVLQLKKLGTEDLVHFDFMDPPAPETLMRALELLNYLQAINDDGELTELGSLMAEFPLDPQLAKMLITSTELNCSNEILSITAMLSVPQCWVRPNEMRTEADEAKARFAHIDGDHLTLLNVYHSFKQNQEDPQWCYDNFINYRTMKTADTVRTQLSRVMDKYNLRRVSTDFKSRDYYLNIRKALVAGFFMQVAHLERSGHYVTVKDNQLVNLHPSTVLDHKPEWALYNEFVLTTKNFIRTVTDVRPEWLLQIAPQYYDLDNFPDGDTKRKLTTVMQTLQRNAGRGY

[3] = molecular target: T2, Recombinant Ce C19L1(1-277), untagged (C. elegans, UniProt O16216 1-277); test: pull-down
T2 sequence: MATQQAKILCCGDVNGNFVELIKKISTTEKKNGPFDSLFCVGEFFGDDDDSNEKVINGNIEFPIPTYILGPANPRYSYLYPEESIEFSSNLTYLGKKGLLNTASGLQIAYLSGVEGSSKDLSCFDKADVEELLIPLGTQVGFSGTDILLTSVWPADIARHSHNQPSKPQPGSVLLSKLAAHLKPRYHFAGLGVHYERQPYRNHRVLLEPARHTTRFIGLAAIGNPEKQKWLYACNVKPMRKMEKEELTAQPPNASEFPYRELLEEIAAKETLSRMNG

B1: 3xFLAG-PRP19 (C. elegans, prp-19) (natural protein)
chain: MSFVCGISGELTEDPVVSQVSGHIFDRRLIVKFIAENGTDPISHGELSEDQLVSLKSGGTGSAPRNVSGTSIPSLLKMLQDEWDTVMLNSFSLRQQLQIARQELSHSLYQHDAACRVISRLSKELTAAREALSTLKPHTSAKVDDDVSIDESEDQQGLSEAILAKLEEKSKSLTAERKQRGKNLPEGLAKTEELAELKQTASHTGIHSTGTPGITALDIKGNLSLTGGIDKTVVLYDYEKEQVMQTFKGHNKKINAVVLHPDNITAISASADSHIRVWSATDSSSKAIIDVHQAPVTDISLNASGDYILSASDDSYWAFSDIRSGKSLCKVSVEPGSQIAVHSIEFHPDGLIFGTGAADAVVKIWDLKNQTVAAAFPGHTAAVRSIAFSENGYYLATGSEDGEVKLWDLRKLKNLKTFANEEKQPINSLSFDMTGTFLGIGGQKVQVLHVKSWSEVVSLSDHSGPVTGVRFGENARSLVTCSLDKSLRVFSF
stoichiometry N (cryo-EM structure): 4

fluorescein-EDEKNKLSAKILKAEMKGDTDLVKKLKRKLESM-biotin [ceC19L2(75-106)-wildtype peptide]
binding result [1]: binds

fluorescein-SMNKGNISFVRGAGKTVQQNTTENPDEIDLD-biotin [ceSYF1(788-818)-wildtype peptide]
binding result [2]: binds | binding result [3]: binds
